Data as given in publication PMC4826628.

Molecular target: Dlx5[Q178P] homeodomain (Homo sapiens, UniProt P56178 137-198, Q178P)
Test: CD thermal denaturation

Dlx5[Q178P] homeodomain, sequence (P56178 137-198 Q178P): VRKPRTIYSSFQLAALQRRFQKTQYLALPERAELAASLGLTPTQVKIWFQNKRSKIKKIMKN

B1: 14-bp palindromic TAAT duplex (dsDNA)
DNA 1: CGACTAATTAGTCG
DNA 2: CGACTAATTAGTCG
Question: Does B1 bind?
Answer: binds
